Experimental findings from patent US20180073089 are described below.

The target in the series is recombinant substrate protein VAMP-2 (2-94)-GFP (UniProt P63027).
recombinant substrate protein VAMP-2 (2-94)-GFP, sequence (P63027 2-94): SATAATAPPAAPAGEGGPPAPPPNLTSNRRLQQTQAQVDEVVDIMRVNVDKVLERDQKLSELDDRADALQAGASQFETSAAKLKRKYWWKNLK

In the case of native BoNT/F (nBoNT/F) control, the “% of cleaved product” value is 65% versus 46% and the specific activity is listed as 26 nmol/h/pmol vs 18 nmol/h/pmol.
